One molecule from US20210380699A1 (published 2021) can be followed below.

For assay [1], the target named is T1, PD-L2-Fc (R&D Systems) (UniProt Q9BQ51 20-219, limits assumed).
T1 construct: not shown: Fc of the bought protein
T1 sequence (looked up): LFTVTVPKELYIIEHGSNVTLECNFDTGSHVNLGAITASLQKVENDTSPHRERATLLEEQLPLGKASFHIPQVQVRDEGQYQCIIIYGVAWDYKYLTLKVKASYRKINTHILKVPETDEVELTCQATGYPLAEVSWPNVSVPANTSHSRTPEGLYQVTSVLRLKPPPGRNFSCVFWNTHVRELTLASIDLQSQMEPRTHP
The assay can be described thus: DELFIA plate assay, biotinylated antibody on plate-bound PD-L2-Fc. The protocol:
Excess protein was removed by washing with PBS-Tween (0.1% v/v) and the wells were blocked with 250 μL/well Pierce Protein Free Blocking Buffer (Thermo, 37572) for 1 hour, after which plates were washed as described previously. […] 100 μL each antibody dilution was added to the plates in duplicate and incubated for 1 hour at room temperature, before washing as stated above. Antibody binding was detected using streptavidin labelled Europium (Perkin Elmer) diluted 1/1000 in DELFIA Assay buffer (Perkin Elmer). Plates were washed with TBS (Tris buffered saline)-Tween (0.1% v/v) and 50 μL/well of DELFIA Enhancement solution (Perkin Elmer) was added to the plate. Time-resolved fluorescence was measured at 615 nm on an Envision plate reader (PerkinElmer).

Assay [2] concerns the target T2, Human PD-L1 expressed on cells (human, UniProt Q9NZQ7 19-290).
T2 construct: One entry used for transfected and natively expressing cells; also called CHO-S hPD-L1; CHO human PD-L1
The assay is described as follows: flow cytometry on CHO hPD-L1 cells, competitor biotin-CD80-Fc, n = 2. How it is done:
(§1) 150 μL FACS buffer is added and cells washed as described above. […] Cells are incubated at 4° C. for 60 minutes. Cells are washed twice with 150 μL FACS buffer, centrifuging at 300 g for 3 minutes after each wash step and aspirating supernatant. Cells are fixed, washed and resuspended for analysis as above. APC signal intensity (geometric mean) is measured by flow cytometry using a Beckman Coulter CYTOFLEX instrument. Data is plotted as percentage of receptor binding.
(§2) All other steps are performed as per plate 2.
(In general: Flow cytometry measures light scatter and fluorescence of single cells or particles in a stream.)

The target of assay [3] is T2, Human PD-L1 expressed on cells. The assay can be described thus: flow cytometry on CHO hPD-L1 cells, competitor biotin-PD-1-Fc, n = 2. The protocol:
as §1

Assay [4] has as its target T3, Human PD-L1 His (human PD-L1 ECD with C-terminal His tag) (human, UniProt Q9NZQ7 19-238).
T3 construct: Biotinylated in ELISA and AlphaScreen assays; also called hPD-L1-his; biotinylated PD-L1 his
The assay is described as follows: SPR 37C, antibody captured, PD-L1 analyte. How it is done:
(§3) Label-free surface plasmon resonance (SPR) analysis was carried out on the ProteOn XPR36 (BioRad) array SPR machine. An anti-human IgG capture surface was created on a GLC biosensor chip using a combination of anti-human Fc antibodies (Jackson Labs 09-005-008,109-006-008 and 309-006-008) by amine coupling. […] The data was analysed using the 1:1 model inherent to the ProteOn XPR36 analysis software.
(§4) Label-free surface plasmon resonance (SPR) analysis was performed as per Example 4, except the assay was performed at 37° C.

Assay [5] addresses T4, Cyno PD-L1 FLAG (cynomolgus PD-L1 ECD with FLAG tag) (cynomolgus monkey).
T4 construct: also called cynomolgus monkey PD-L1-FLAG
The assay is described as follows: SPR 37C, antibody captured, PD-L1 analyte. How it is done:
as §3, §4

In assay [6] the target is T3, Human PD-L1 His (human PD-L1 ECD with …). The assay can be described thus: ELISA, biotin-PD-L1 to plate-bound PD-1, antibody titrated. How it is done:
Excess protein was removed by washing with PBS-Tween (0.1% v/v) and the wells were blocked with 1% w/v bovine serum albumin (BSA, Sigma) in PBS for 1 hour at room temperature, after which plates were washed as described previously. […] The plate was incubated for 30 minutes before transferring 50 μL to the coated plates. The coated plates were incubated for 1 hour at room temperature. Excess protein was removed by washing with PBS-Tween (0.1% v/v). PD-L1 binding was detected using streptavidin labelled Europium (Perkin Elmer) diluted 1/1000 in DELFIA assay buffer (Perkin Elmer). Plates were washed with TBS (Tris buffered saline)-Tween (0.1% v/v) and 50 μL/well of DELFIA Enhancement solution (Perkin Elmer) was added to the plate. Time-resolved fluorescence was measured at 615 nm on an Envision plate reader (PerkinElmer).
(ELISA stands for enzyme-linked immunosorbent assay.)

The target of assay [7] is T2, Human PD-L1 expressed on cells. The assay is described as follows: cell-based or functional assay.
The target is the same in assay [8]. The assay can be described thus: flow cytometry on CHO hPD-L1 cells, competitor biotin-PD-1-Fc, n = 1. How it is done:
as §1

The target is the same in assay [9]. The assay can be described thus: cell-based or functional assay. The source holds these as a separate data set.
Assay [10] shares this target. The assay can be described thus: flow cytometry on CHO hPD-L1 cells, competitor biotin-PD-1-Fc. How it is done:
Plates were centrifuged at 300×g for 3 minutes to supernatant aspirated. […] Cells were washed with 150 μL of PBS and centrifuged at 300 g for 3 minutes. Supernatant was aspirated and 150 μL PBS added. This wash step was repeated.

Assay [11] shares this target. The assay is described as follows: cell-based or functional assay. The source holds these as a separate data set.
The target is the same in assay [12]. The assay is described as follows: flow cytometry on CHO hPD-L1 cells, competitor biotin-CD80-Fc, n = 1. The protocol: as §1, §2

A word on the IC50: it is the concentration at which inhibition is half-maximal. A lower IC50 goes with higher potency. As a reminder, the Kd is the constant that tells how readily two partners part at equilibrium.

T2 sequence (Q9NZQ7 19-290 limits assumed): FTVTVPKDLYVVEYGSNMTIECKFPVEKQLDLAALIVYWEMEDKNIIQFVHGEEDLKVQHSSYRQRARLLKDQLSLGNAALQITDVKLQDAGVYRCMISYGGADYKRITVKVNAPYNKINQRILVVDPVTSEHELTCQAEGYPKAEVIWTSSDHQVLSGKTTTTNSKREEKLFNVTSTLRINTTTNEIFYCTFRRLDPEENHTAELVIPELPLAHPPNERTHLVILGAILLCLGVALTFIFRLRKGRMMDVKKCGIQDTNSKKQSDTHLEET
T3 sequence (Q9NZQ7 19-238 limits assumed): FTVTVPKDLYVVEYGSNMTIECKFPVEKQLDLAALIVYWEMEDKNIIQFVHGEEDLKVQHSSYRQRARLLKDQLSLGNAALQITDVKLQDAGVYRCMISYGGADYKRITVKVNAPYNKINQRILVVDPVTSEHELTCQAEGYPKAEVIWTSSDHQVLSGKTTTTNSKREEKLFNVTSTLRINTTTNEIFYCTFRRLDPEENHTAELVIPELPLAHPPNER
T4 sequence (chain, as listed by the source limits assumed): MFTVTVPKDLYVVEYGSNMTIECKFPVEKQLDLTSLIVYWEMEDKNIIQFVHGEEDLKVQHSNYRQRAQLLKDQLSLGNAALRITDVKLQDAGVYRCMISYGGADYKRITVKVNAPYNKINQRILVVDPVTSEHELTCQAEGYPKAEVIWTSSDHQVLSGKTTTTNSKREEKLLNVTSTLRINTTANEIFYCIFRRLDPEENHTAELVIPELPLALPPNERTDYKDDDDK

B1: 84G09 (human IgG1) (antibody, V domains shown)
VH: EVQLVESGGGLVQPGRSLRLSCAASGFTFDDYAMHWVRQTPGKGLEWVSGISWKSNIIGYADSVKGRFTISRDNAKNSLYLQMNSLRAEDTALYYCARDITGSGSYGWFDPWGQGTLVTVSS
VL: DIQMTQSPSSLSASVGDRVTITCRASQSISSYLNWYQQKPGKAPKPLIYVASSLQSGVPSSFSGSGSGTDFTLTISSLQPEDFATYYCQQSYSNPITFGQGTRLEIKR
notes: also called clone 84609; lead antibody
As to B1, the binding result in assay [1] was “no binding (tested: 10 µg/mL top concentration)”. In addition, the IC50 in assay [2] worked out at 1410 pM; in [3], 1410 pM; in [6], 7900 pM; in assay [8], 890 pM; in [10], 1820 pM; in assay [12], 1110 pM. Also, the values for the Kd in assay [4] and in assay [5] were 430 pM and 520 pM, respectively. Also, in assay [7], the “mean EC50, IFNγ induction, monocyte-T cell co-culture” value was 81 pM. In addition, the “EC50, ADCC reporter assay, n = 1” value in [9] is 24.9 pM. In addition, in assay [9], the “EC50, ADCC reporter assay, n = 2” value was 15.3 pM. Also, the “EC50, ADCC reporter assay, n = 3” value in [9] was 25.9 pM. The “EC50, IL-2 induction, murine T cell hybridoma assay, n = 1” value in assay [11] was 240 pM. The “EC50, IL-2 induction, murine T cell hybridoma assay, n = 2” value in [11] turned out to be 140 pM. Also, in assay [11], the “EC50, IL-2 induction, murine T cell hybridoma assay, n = 3” value was determined as 170 pM.
